The text below walks through data of paper PMC4636433.

The target in this data set is Rep68 wt (Adeno-associated virus 2 (AAV2), UniProt P03132 1-536). Briefly: fluorescence anisotropy.
Sequence of Rep68 wt (P03132 whole entry): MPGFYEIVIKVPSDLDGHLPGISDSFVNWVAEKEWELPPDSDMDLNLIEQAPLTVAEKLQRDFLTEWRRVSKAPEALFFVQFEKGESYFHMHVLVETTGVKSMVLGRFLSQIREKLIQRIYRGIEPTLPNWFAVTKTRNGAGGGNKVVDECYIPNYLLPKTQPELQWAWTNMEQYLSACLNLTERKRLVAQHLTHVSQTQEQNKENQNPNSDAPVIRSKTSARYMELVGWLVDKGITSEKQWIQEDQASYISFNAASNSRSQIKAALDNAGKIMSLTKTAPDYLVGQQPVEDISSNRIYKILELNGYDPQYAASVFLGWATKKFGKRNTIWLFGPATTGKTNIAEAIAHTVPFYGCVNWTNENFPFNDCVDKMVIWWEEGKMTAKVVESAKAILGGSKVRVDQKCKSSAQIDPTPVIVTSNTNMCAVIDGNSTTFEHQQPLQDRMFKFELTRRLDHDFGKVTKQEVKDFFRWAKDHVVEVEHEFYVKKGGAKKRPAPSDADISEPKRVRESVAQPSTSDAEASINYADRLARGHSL

B1: 41-mer AAVS1 RBS DNA (dsDNA)
DNA 1: TGGCGGCGGTTGGGGCTCGGCGCTCGCTCGCTCGCTGGGCG
DNA 2: CGCCCAGCGAGCGAGCGAGCGCCGAGCCCCAACCGCCGCCA
As for B1, the binding result is “binds”.
